Measurements taken from patent publication US20210388087A1 (Chugai, published 2021).

Biological target: T1, CD3 epsilon homodimer protein (UniProt P07766 23-126)
T1 construct: immobilized on Sensor chip CM4 by amine coupling; also called CD3 (CD3 epsilon)
Assay: SPR (Biacore T200), CD3 epsilon homodimer on CM4 chip, one-arm antibody as analyte, 25 C;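 further: homodimer attached to the sensor surface via amine coupling, HBS-EP+ used as running buffer during binding runs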

T1 sequence (P07766 23-126): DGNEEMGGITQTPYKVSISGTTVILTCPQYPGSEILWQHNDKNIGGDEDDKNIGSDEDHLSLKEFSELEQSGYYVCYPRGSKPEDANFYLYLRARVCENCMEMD

ratio of amounts bound (altered form / CE115HA000)	Binder
0.12	CE115HA000 H35I one-arm antibody (antibody, human IgG1, kappa, L234A L235A, N297A, name in Kabat numbering) heavy: QVQLVESGGGVVQPGRSLRLSCAASGFTFSNAWMIWVRQAPGKGLEWVAQIKAKSNNYATYYAESVKGRFTISRDDSKNSLYLQMNSLKTEDTAVYYCRYVHYGAYYGVDAWGQGTTVTVSSASTKGPSVFPLAPSSKSTSGGTAALGCLVKDYFPEPVTVSWNSGALTSGVHTFPAVLQSSGLYSLSSVVTVPSSSLGTQTYICNVNHKPSNTKVDKKVEPKSCDKTHTCPPCPAPEAAGGPSVFLFPPKPKDTLMISRTPEVTCVVVDVSHEDPEVKFNWYVDGVEVHNAKTKPREEQYASTYRVVSVLTVLHQDWLNGKEYKCKVSNKALPAPIEKTISKAKGQPREPQVYTLPPSRCELTKNQVSLSCAVKGFYPSDIAVEWESNGQPENNYKTTPPVLDSDGSFFLVSKLTVDKSRWQQGNVFSCSVMHEALHNHYTQKSLSLSPDYKDDDDK EPKSSDKTHTCPPCPAPELLGGPSVFLFPPKPKDTLMISRTPEVTCVVVDVSHEDPEVKFNWYVDGVEVHNAKTKPREEQYNSTYRVVSVLTVLHQDWLNGKEYKCKVSNKALPAPIEKTISKAKGQPREPQVCTLPPSRDELTKNQVSLWCLVKGFYPSDIAVEWESNGQPENNYKTTPPVLDSDGSFFLYSKLTVDKSRWQQGNVFSCSVMHEALHNRYTQKSLSLSP light: DIVMTQSPLSLPVTPGEPASISCRSSQSLVHSNRNTYLHWYQQKPGQAPRLLIYKVSNRFSGVPDRFSGSGSGTDFTLKISRVEAEDVGVYYCGQGTQVPYTFGQGTKLEIKRTVAAPSVFIFPPSDEQLKSGTASVVCLLNNFYPREAKVQWKVDNALQSGNSQESVTEQDSKDSTYSLSSTLTLSKADYEKHKVYACEVTHQGLSSPVTKSFNRGEC
0.15	CE115HA000 H35K one-arm antibody (antibody, human IgG1, kappa, L234A L235A, N297A, name in Kabat numbering) heavy: QVQLVESGGGVVQPGRSLRLSCAASGFTFSNAWMKWVRQAPGKGLEWVAQIKAKSNNYATYYAESVKGRFTISRDDSKNSLYLQMNSLKTEDTAVYYCRYVHYGAYYGVDAWGQGTTVTVSSASTKGPSVFPLAPSSKSTSGGTAALGCLVKDYFPEPVTVSWNSGALTSGVHTFPAVLQSSGLYSLSSVVTVPSSSLGTQTYICNVNHKPSNTKVDKKVEPKSCDKTHTCPPCPAPEAAGGPSVFLFPPKPKDTLMISRTPEVTCVVVDVSHEDPEVKFNWYVDGVEVHNAKTKPREEQYASTYRVVSVLTVLHQDWLNGKEYKCKVSNKALPAPIEKTISKAKGQPREPQVYTLPPSRCELTKNQVSLSCAVKGFYPSDIAVEWESNGQPENNYKTTPPVLDSDGSFFLVSKLTVDKSRWQQGNVFSCSVMHEALHNHYTQKSLSLSPDYKDDDDK EPKSSDKTHTCPPCPAPELLGGPSVFLFPPKPKDTLMISRTPEVTCVVVDVSHEDPEVKFNWYVDGVEVHNAKTKPREEQYNSTYRVVSVLTVLHQDWLNGKEYKCKVSNKALPAPIEKTISKAKGQPREPQVCTLPPSRDELTKNQVSLWCLVKGFYPSDIAVEWESNGQPENNYKTTPPVLDSDGSFFLYSKLTVDKSRWQQGNVFSCSVMHEALHNRYTQKSLSLSP light: DIVMTQSPLSLPVTPGEPASISCRSSQSLVHSNRNTYLHWYQQKPGQAPRLLIYKVSNRFSGVPDRFSGSGSGTDFTLKISRVEAEDVGVYYCGQGTQVPYTFGQGTKLEIKRTVAAPSVFIFPPSDEQLKSGTASVVCLLNNFYPREAKVQWKVDNALQSGNSQESVTEQDSKDSTYSLSSTLTLSKADYEKHKVYACEVTHQGLSSPVTKSFNRGEC
